Among the data in patent US20220380463A1 are Kd and kon values, retold here.

The target of the assay is cynomolgus CD3εδ Fc heterodimer (Cy CD3ε Fc / CD3δ Fc-HIS) (cynomolgus) (UniProt Q95LI8). Kind of assay: BLI (ForteBio), pH 6.0. Background: Biolayer interferometry detects binding as a change in optical thickness at a sensor tip.
Sequence of cynomolgus CD3εδ Fc heterodimer (Cy CD3ε Fc / CD3δ Fc-HIS) (cynomolgus) (chain, as listed by the source mutant, chain 1 of 2): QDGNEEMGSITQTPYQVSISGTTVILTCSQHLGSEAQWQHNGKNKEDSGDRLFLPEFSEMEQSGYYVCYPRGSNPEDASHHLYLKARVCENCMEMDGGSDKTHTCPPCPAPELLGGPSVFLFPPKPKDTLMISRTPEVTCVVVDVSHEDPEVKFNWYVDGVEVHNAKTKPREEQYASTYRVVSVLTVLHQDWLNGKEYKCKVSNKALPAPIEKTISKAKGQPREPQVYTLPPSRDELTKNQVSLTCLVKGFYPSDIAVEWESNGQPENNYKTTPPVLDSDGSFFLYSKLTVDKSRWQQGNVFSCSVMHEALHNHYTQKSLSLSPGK
Sequence of cynomolgus CD3εδ Fc heterodimer (Cy CD3ε Fc / CD3δ Fc-HIS) (cynomolgus) (Q95LI8 22-100, stated change not applied, chain 2 of 2): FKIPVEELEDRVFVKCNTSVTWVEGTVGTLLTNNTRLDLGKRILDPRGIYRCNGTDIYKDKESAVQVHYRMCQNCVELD

B1: SAD10320_P04_D12 (antibody, V domains shown)
VH: QVQLVQSGAEVKKPGASVKVSCKASGFNIKDYYMHWVRQAPGQRLEWMGWIDLENANTIYDAKFQGRVTITRDTSASTAYMELSSLRSEDTAVYYCARDAYGHDFYDVWGQGTLVTVSS
VL: DIVMTQSPDSLAVSLGERATINCKSSQSLLNARTGKNYLAWYQQKPGQPPKLLIYWASTRESGVPDRFSGSGSGTDFTLTISSLQAEDVAVYYCKQSYSHRTFGGGTKVEIK
Molecule B1 registered an equilibrium dissociation constant (Kd) of 13.9 nM and a kon of 186000 M⁻¹ s⁻¹.

B2: SAD10320_P04_E12 (antibody, V domains shown)
VH: QVQLVQSGAEVKKPGASVKVSCKASGFNIKDYYMHWVRQAPGQRLEWMGWIDLENANTIYDAKFQGRVTITRDTSASTAYMELSSLRSEDTAVYYCARDAYGHTFYDVWGQGTLVTVSS
VL: DIVMTQSPDSLAVSLGERATINCKSSQSLLNARTGKNYLAWYQQKPGQPPKLLIYWASTRESGVPDRFSGSGSGTDFTLTISSLQAEDVAVYYCKQSYHVRTFGGGTKVEIK
The molecule B2 gave a Kd of 79.8 nM and an on-rate (kon) of 136000 M⁻¹ s⁻¹.

By Kd is commonly meant the constant that tells how readily two partners part at equilibrium. The kon is the second-order rate constant of association.
